# Data reported in the supplement of paper PMC10567573.
# B1: MLL5 (parent)
# chain: DCMGIDRQHIPDTYLCERCQPRNL
# Variants of: B1
# Assay: protein stability index of a GFP-peptide fusion (GPS, HEK-293T) (PSI 1-6); higher = more stable
# Conditions: c terminus: a fixed tail appended
# 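Also: lentivirally expressed fusions sorted by FACS into six bins by GFP to DsRed ratio, PSI derived from sequencing read proportions per bin multiplied by bin number.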
row,Variant,protein stability index
1,H9T,3.11
2,H9F,2.04
3,H9C,3.29
4,H9D,2.56
5,H9R,2.64
6,H9P,2.12
7,H9G,2.77
8,H9A,2.63
9,H9L,2.93
10,H9Q,3.04
11,H9S,2.98
12,H9N,2.65
13,H9E,2.86
14,H9M,2.16
15,H9I,2.24
16,H9Y,2.01
17,H9V,2.63
18,H9W,2.23
19,H9K,3.58
20,I10N,3.3
21,I10W,2.37
22,I10L,3.02
23,I10F,2.54
24,I10H,3.49

row,Variant,protein stability index
1,I10V,2.45
2,I10P,2.97
3,I10E,3.72
4,I10Q,3.42
5,I10Y,3.49
6,I10R,3
7,I10G,3.13
8,I10D,3.56
9,I10M,3.9
10,I10S,3.14
11,I10A,2.92
12,I10C,3.62
13,I10K,3.04
14,I10T,2.48
15,L15C,3.71
16,L15H,3.32
17,L15D,3.69
18,L15G,3.43
19,L15A,3.61
20,L15E,4.66
21,L15F,2
22,R7S,3.44
23,R7Q,3.06
24,R7M,2.55

row,Variant,protein stability index
1,R7N,2.9
2,R7Y,2.2
3,R7P,2.94
4,R7A,2.63
5,R7G,3.69
6,R7K,2.29
7,R7I,2.24
8,R7H,3.73
9,R7V,2.39
10,R7C,4.09
11,R7T,3.02
12,R7E,3.58
13,R7F,2.78
14,R7W,2.4
15,R7L,2.68
16,R7D,3.62
17,D12E,2.81
18,D12F,2.64
19,D12A,2.01
20,D12M,3.1
21,D12Q,2.67
22,D12L,1.93
23,D12T,2.81
24,D12H,2.48

row,Variant,protein stability index
1,D12S,2.38
2,D12K,1.96
3,D12Y,2.1
4,D12C,2.67
5,D12N,2.38
6,D12G,2.63
7,D12R,2.86
8,D12P,3.19
9,D12I,2.51
10,D12V,1.69
11,Q8Y,2.65
12,Q8K,2.44
13,Q8S,3.25
14,Q8P,3.41
15,Q8T,2.33
16,Q8N,3.07
17,Q8W,1.76
18,Q8A,2.54
19,Q8D,2.27
20,Q8G,2.59
21,Q8V,2.1
22,Q8R,2.5
23,Q8M,2.58
24,Q8F,1.98

row,Variant,protein stability index
1,Q8C,2.73
2,Q8H,2.89
3,Q8L,1.99
4,Q8E,2.63
5,Q8I,2.56
6,Y14W,3.26
7,Y14C,4.74
8,Y14S,3.32
9,Y14D,3.83
10,Y14K,3.11
11,Y14T,3.73
12,Y14L,2.56
13,Y14R,3.88
14,Y14M,3.5
15,Y14P,3.71
16,Y14E,4.21
17,Y14H,4.12
18,Y14A,3.85
19,Y14N,3.15
20,Y14G,3.35
21,Y14V,3.43
22,Y14I,3.21
23,Y14F,2.89
24,Y14Q,3.7

row,Variant,protein stability index
1,D6V,2.4
2,D6T,2.02
3,D6Q,3.21
4,D6R,2.74
5,D6W,1.62
6,D6N,2.4
7,D6Y,2.47
8,D6P,2.61
9,D6S,2.99
10,T13G,3.31
11,T13K,3.24
12,T13V,3.34
13,T13C,2.17
14,T13R,3.63
15,T13A,3.59
16,T13N,2.91
17,T13Q,3.07
18,T13P,3.33
19,T13F,2.55
20,T13W,2.7
21,T13M,2.89
22,T13Y,2.15
23,T13S,3.66
24,T13I,2.26

row,Variant,protein stability index
1,T13E,3.71
2,T13D,3.54
3,T13H,3.36
4,T13L,2.04
5,P11R,3.15
6,P11K,2.62
7,P11G,2.96
8,P11I,2.36
9,P11F,2.59
10,P11E,3.43
11,P11Q,2.69
12,P11M,2.82
13,P11S,2.23
14,P11D,2.61
15,P11T,3.08
16,P11W,1.7
17,P11C,4.15
18,P11Y,2.44
19,P11V,2.73
20,P11L,2.23
21,P11H,3.71
22,P11N,4.19
23,P11A,2.6
